Measured values published in US9618524B2, “Method, composition, isolation and identification of a plaque particle and related biomarker” (Plaxgen Inc., priority 2012, dated 2017).

B1: Phosphatidylinositol-glycan-specific phospholipase D (protein)
chain: CGLSTHVEIGHRALEFLQLHNGRVNYRELLLEHQDAYQAGIVFPDCFYPSICKGGKFHDVSESTHWTPFLNASVHYIRENYPLPWEKDTEKLVAFLFGITSHMAADVSWHSLGLEQGFLRTMGAIDFHGSYSEAHSAGDFGGDVLSQFEFNFNYLARRWYVPVKDLLGIYEKLYGRKVITENVIVDCSHIQFLEMYGEMLAVSKLYPTYSTKSPFLVEQFQEYFLGGLDDMAFWSTNIYHLTSFMLENGTSDCNLPENPLFIACGGQQNHTQGSKMQKNDFHRNLTTSLTESVDRNINYTERGVFFSVNSWTPDSMSFIYKALERNIRTMFIGGSQLSQKHVSSPLASYFLSFPYARLGWAMTSADLNQDGHGDLVVGAPGYSRPGHIHIGRVYLIYGNDLGLPPVDLDLDKEAHRILEGFQPSGRFGSALAVLDFNVDGVPDLAVGAPSVGSEQLTYKGAVYVYFGSKQGGMSSSPNITISCQDIYCNLGWTLLAADVNGDSEPDLVIGSPFAPGGGKQKGIVAAFYSGPSLSDKEKLNVEAANWTVRGEEDFSWFGYSLHGVTVDNRTLLLVGSPTWKNASRLGHLLHIRDEKKSLGRVYGYFPPNGQSWFTISGDKAMGKLGTSLSSGHVLMNGTLKQVLLVGAPTYDDVSKVAFLTVTLHQGGATRMYALTSDAQPLLLSTFSGDRRFSRFGGVLHLSDLDDDGLDEIIMAAPLRIADVTSGLIGGEDGRVYVYNGKETTLGDMTGKCKSWITPCPEEKAQYVLISPEASSRFGSSLITVRSKAKNQVVIAAGRSSLGARLSGALHVYSLGSD
B2: Tetranectin (protein)
chain: EPPTQKPKKIVNAKKDVVNTKMFEELKSRLDTLAQEVALLKEQQALQTVCLKGTKVHMKCFLAFTQTKTFHEASEDCISRGGTLGTPQTGSENDALYEYLRQSVGNEAEIWLGLNDMAAEGTWVDMTGARIAYKNWETEITAQPDGGKTENCAVLSGAANGKWFDKRCRDQLPYICQFGIV
B3: Isoform 2 of Ficolin-3 (protein)
chain: QEHPSCPGPRELEASKVVLLPSCPGAPGSPGEKGAPGPQGPPGPPGKMGPKGEPGPRNCRELLSQGATLSGWYHLCLPEGRALPVFCDMDTEGGGWLVFQRRQDGSVDFFRSWSSYRAGFGNQESEFWLGNENLHQLTLQGNWELRVELEDFNGNRTFAHYATFRLLGEVDHYQLALGKFSEGTAGDSLSLHSGRPFTTYDADHDSSNSNCAVIVHGAWWYASCYRSNLNGRYAVSEAAAHKYGIDWASGRGVGHPYRRVRMMLR
B4: Platelet factor 4 variant (protein)
chain: FARAEAEEDGDLQCLCVKTTSQVRPRHITSLEVIKAGPHCPTAQLIATLKNGRKICLDLQALLYKKIIKEHLES
B5: Junction plakoglobin (protein)
chain: MEVMNLMEQPIKVTEWQQTYTYDSGIHSGANTCVPSVSSKGIMEEDEACGRQYTLKKTTTYTQGVPPSQGDLEYQMSTTARAKRVREAMCPGVSGEDSSLLLATQVEGQATNLQRLAEPSQLLKSAIVHLINYQDDAELATRALPELTKLLNDEDPVVVTKAAMIVNQLSKKEASRRALMGSPQLVAAVVRTMQNTSDLDTARCTTSILHNLSHHREGLLAIFKSGGIPALVRMLSSPVESVLFYAITTLHNLLLYQEGAKMAVRLADGLQKMVPLLNKNNPKFLAITTDCLQLLAYGNQESKLIILANGGPQALVQIMRNYSYEKLLWTTSRVLKVLSVCPSNKPAIVEAGGMQALGKHLTSNSPRLVQNCLWTLRNLSDVATKQEGLESVLKILVNQLSVDDVNVLTCATGTLSNLTCNNSKNKTLVTQNSGVEALIHAILRAGDKDDITEPAVCALRHLTSRHPEAEMAQNSVRLNYGIPAIVKLLNQPNQWPLVKATIGLIRNLALCPANHAPLQEAAVIPRLVQLLVKAHQDAQRHVAAGTQQPYTDGVRMEEIVEGCTGALHILARDPMNRMEIFRLNTIPLFVQLLYSSVENIQRVAAGVLCELAQDKEAADAIDAEGASAPLMELLHSRNEGTATYAAAVLFRISEDKNPDYRKRVSVELTNSLFKHDPAAWEAAQSMIPINEPYGDDMDATYRPMYSSDVPLDPLEMHMDMDGDYPIDTYSDGLRPPYPTADHMLA
B6: Ig heavy chain V-III region WEA (protein)
chain: EVQLVESGGGLVQPGGSLRLSCAASGFTFSSYEMNWVRQAPGKGLEWVSYISSSGSTIYYADSVKGRFTISRDNAKNSLYLQMNSLRAEDTAVYYCAR
B7: Isoform B of Fibulin-1 (protein)
chain: DVLLEACCADGHRMATHQKDCSLPYATESKECRMVQEQCCHSQLEELHCATGISLANEQDRCATPHGDNASLEATFVKRCCHCCLLGRAAQAQGQSCEYSLMVGYQCGQVFQACCVKSQETGDLDVGGLQETDKIIEVEEEQEDPYLNDRCRGGGPCKQQCRDTGDEVVCSCFVGYQLLSDGVSCEDVNECITGSHSCRLGESCINTVGSFRCQRDSSCGTGYELTEDNSCKDIDECESGIHNCLPDFICQNTLGSFRCRPKLQCKSGFIQDALGNCIDINECLSISAPCPIGHTCINTEGSYTCQKNVPNCGRGYHLNEEGTRCVDVDECAPPAEPCGKGHRCVNSPGSFRCECKTGYYFDGISRMCVDVNECQRYPGRLCGHKCENTLGSYLCSCSVGFRLSVDGRSCEDINECSSSPCSQECANVYGSYQCYCRRGYQLSDVDGVTCEDIDECALPTGGHICSYRCINIPGSFQCSCPSSGYRLAPNGRNCQDIDECVTGIHNCSINETCFNIQGGFRCLAFECPENYRRSAATQKSKKGRQNTPAGSSKEDCRVLPWKQGLEDTHLDA
B8: Isoform C of Fibulin-1 (protein)
chain: DVLLEACCADGHRMATHQKDCSLPYATESKECRMVQEQCCHSQLEELHCATGISLANEQDRCATPHGDNASLEATFVKRCCHCCLLGRAAQAQGQSCEYSLMVGYQCGQVFQACCVKSQETGDLDVGGLQETDKIIEVEEEQEDPYLNDRCRGGGPCKQQCRDTGDEVVCSCFVGYQLLSDGVSCEDVNECITGSHSCRLGESCINTVGSFRCQRDSSCGTGYELTEDNSCKDIDECESGIHNCLPDFICQNTLGSFRCRPKLQCKSGFIQDALGNCIDINECLSISAPCPIGHTCINTEGSYTCQKNVPNCGRGYHLNEEGTRCVDVDECAPPAEPCGKGHRCVNSPGSFRCECKTGYYFDGISRMCVDVNECQRYPGRLCGHKCENTLGSYLCSCSVGFRLSVDGRSCEDINECSSSPCSQECANVYGSYQCYCRRGYQLSDVDGVTCEDIDECALPTGGHICSYRCINIPGSFQCSCPSSGYRLAPNGRNCQDIDECVTGIHNCSINETCFNIQGGFRCLAFECPENYRRSAATRCERLPCHENRECSKLPLRITYYHLSFPTNIQAPAVVFRMGPSSAVPGDSMQLAITGGNEEGFFTTRKVSPHSGVVALTKPVPEPRDLLLTVKMDLSRHGTVSSFVAKLFIFVSAEL
B9: Protein S100-A7 (protein)
chain: SNTQAERSIIGMIDMFHKYTRRDDKIEKPSLLTMMKENFPNFLSACDKKGTNYLADVFEKKDKNEDKKIDFSEFLSLLGDIATDYHKQSHGAAPCSGGSQ

System: High Density cholesterol (Chl Large) plaque particles
Assay: Mass spectroscopy proteomics, semi-quantitative binding affinity of serum proteins (plaqueproteome, Table 2)
Parameters: species or system human
Settings: higher number = stronger affinity
Method in brief: (§1)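 Proteins bound to flow-sorted cholesterol plaque particles (large/high-density or small/low-density gates) were identified by LC-MS/MS after trypsin digestion. Particles were formed from 50% atherosclerotic serum or plasma with 30 μg cholesterol aggregates, 1 h, 37 °C. Sequest human database search; Scaffold validation.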

Molecule | Semi-quantitative analysis of proteins binding to different plaque particles: Chl Large
B1 | 1
B2 | 0
B3 | 0
B4 | 1
B5 | 0
B6 | 1
B7 | 3
B8 | 1
B9 | 0

System: Low density cholesterol (Chl small) plaque particles
Assay: as above
Parameters: species or system human
Settings: higher number = stronger affinity
Method in brief: as §1

Molecule | Semi-quantitative analysis of proteins binding to different plaque particles: Chl small
B1 | 1
B2 | 1
B3 | 0
B4 | 0
B5 | 0
B6 | 1
B7 | 3
B8 | 2
B9 | 0

System: Tau plaque particles
Assay: as above
Parameters: species or system human
Settings: higher number = stronger affinity
Method in brief: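 Serum or plasma proteins captured on Thioflavin S-labelled Tau plaque particles (Tau-74, Tau-275 oligomers preformed in PBS at 37° C for 2 h; 1 h co-incubation at 37° C) were isolated by FACS sorting, then tryptically digested and identified by MS/MS (Sequest, human UniProt, strict trypsin).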

Molecule | Semi-quantitative analysis of proteins binding to different plaque particles: Tau
B1 | 2
B2 | 0
B3 | 0
B4 | 0
B5 | 0
B6 | 1
B7 | 0
B8 | 0
B9 | 0

Molecular target: T1, Abeta-42 plaque particles (Homo sapiens, UniProt P05067)
T1 construct: Abeta 1-42
Assay: as above
Settings: higher number = stronger affinity
Method in brief: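 AD patient serum or plasma (50% in PBS) was incubated with Abeta-42 aggregates (30 μg) for 1 h at 37 °C, then stained with Thioflavin S for 30 min. Labeled particles were FACS-sorted, trypsin/Lys-C digested overnight and analyzed by MS/MS. Sequest searched human UniProt; Scaffold/Protein Prophet validated the identifications.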

Molecule | Semi-quantitative analysis of proteins binding to different plaque particles: Abeta-42
B1 | 0
B2 | 0
B3 | 0
B4 | 0
B5 | 2
B6 | 2
B7 | 0
B8 | 0
B9 | 2

Molecular target: T2, alpha-synuclein plaque particles (Homo sapiens, UniProt P37840)
T2 construct: 140 amino acids polypeptide
Assay: as above
Settings: higher number = stronger affinity
Method in brief: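 AD-subject plasma or serum (800 μL of 50%) mixed with 30 μg preformed alpha-synuclein aggregates for 1 h at 37 °C; Thioflavin S-positive particles isolated by flow sorting. After reduction, acrylamide alkylation and overnight tryptic digestion, serum proteins identified by MS/MS with Sequest and Scaffold.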

Molecule | Semi-quantitative analysis of proteins binding to different plaque particles: Synuclein
B1 | 0
B2 | 0
B3 | 1
B4 | 1
B5 | 0
B6 | 1
B7 | 1
B8 | 1
B9 | 0
